Assay results as given in patent US20240190920A1 (SHENZHEN RESEARCH INSTITUTE OF THE HONG KONG POLYTECHNIC …, published 2024).
Bridge positions count the residues as written; N and C are the ends. Square brackets hold non-standard residues; d marks the D form. R8 = C=CCCCCCC[C@@](C)(N)C(=O)O; S5 = C=CCCC[C@](C)(N)C(=O)O

B1: i7-01s-57 (Ac-[Tat]-RRIQ(R8)MEDVLK(S5)RKR-NH2) (peptide)
peptide: Ac-YGRKKRRQRRRRRIQ[R8]MEDVLK[S5]RKR-NH2
modifications: staple 16-23
SMILES: CC[C@H](C)[C@H](NC(=O)[C@H](CCCNC(=N)N)NC(=O)[C@H](CCCNC(=N)N)NC(=O)[C@H](CCCNC(=N)N)NC(=O)[C@H](CCCNC(=N)N)NC(=O)[C@H](CCCNC(=N)N)NC(=O)[C@H](CCC(N)=O)NC(=O)[C@H](CCCNC(=N)N)NC(=O)[C@H](CCCNC(=N)N)NC(=O)[C@H](CCCCN)NC(=O)[C@H](CCCCN)NC(=O)[C@H](CCCNC(=N)N)NC(=O)CNC(=O)[C@H](Cc1ccc(O)cc1)NC(C)=O)C(=O)N[C@@H](CCC(N)=O)C(=O)N[C@]1(C)CCCCCCC=CCCC[C@@](C)(C(=O)N[C@@H](CCCNC(=N)N)C(=O)N[C@@H](CCCCN)C(=O)N[C@@H](CCCNC(=N)N)C(N)=O)NC(=O)[C@H](CCCCN)NC(=O)[C@H](CC(C)C)NC(=O)[C@H](C(C)C)NC(=O)[C@H](CC(=O)O)NC(=O)[C@H](CCC(=O)O)NC(=O)[C@H](CCSC)NC1=O
B2: i7-01s-02 (Ac-[Tat]-RLIQ(R8)REDREK(S5)RAV-NH2) (peptide)
peptide: Ac-YGRKKRRQRRRRLIQ[R8]REDREK[S5]RAV-NH2
modifications: staple 16-23
SMILES: CC[C@H](C)[C@H](NC(=O)[C@H](CC(C)C)NC(=O)[C@H](CCCNC(=N)N)NC(=O)[C@H](CCCNC(=N)N)NC(=O)[C@H](CCCNC(=N)N)NC(=O)[C@H](CCCNC(=N)N)NC(=O)[C@H](CCC(N)=O)NC(=O)[C@H](CCCNC(=N)N)NC(=O)[C@H](CCCNC(=N)N)NC(=O)[C@H](CCCCN)NC(=O)[C@H](CCCCN)NC(=O)[C@H](CCCNC(=N)N)NC(=O)CNC(=O)[C@H](Cc1ccc(O)cc1)NC(C)=O)C(=O)N[C@@H](CCC(N)=O)C(=O)N[C@]1(C)CCCCCCC=CCCC[C@@](C)(C(=O)N[C@@H](CCCNC(=N)N)C(=O)N[C@@H](C)C(=O)N[C@H](C(N)=O)C(C)C)NC(=O)[C@H](CCCCN)NC(=O)[C@H](CCC(=O)O)NC(=O)[C@H](CCCNC(=N)N)NC(=O)[C@H](CC(=O)O)NC(=O)[C@H](CCC(=O)O)NC(=O)[C@H](CCCNC(=N)N)NC1=O
B3: i7-01s-58 (Ac-[Tat]-RLIE(R8)REIVEK(S5)RKR-NH2) (peptide)
peptide: Ac-YGRKKRRQRRRRLIE[R8]REIVEK[S5]RKR-NH2
modifications: staple 16-23
SMILES: CC[C@H](C)[C@H](NC(=O)[C@H](CC(C)C)NC(=O)[C@H](CCCNC(=N)N)NC(=O)[C@H](CCCNC(=N)N)NC(=O)[C@H](CCCNC(=N)N)NC(=O)[C@H](CCCNC(=N)N)NC(=O)[C@H](CCC(N)=O)NC(=O)[C@H](CCCNC(=N)N)NC(=O)[C@H](CCCNC(=N)N)NC(=O)[C@H](CCCCN)NC(=O)[C@H](CCCCN)NC(=O)[C@H](CCCNC(=N)N)NC(=O)CNC(=O)[C@H](Cc1ccc(O)cc1)NC(C)=O)C(=O)N[C@@H](CCC(=O)O)C(=O)N[C@]1(C)CCCCCCC=CCCC[C@@](C)(C(=O)N[C@@H](CCCNC(=N)N)C(=O)N[C@@H](CCCCN)C(=O)N[C@@H](CCCNC(=N)N)C(N)=O)NC(=O)[C@H](CCCCN)NC(=O)[C@H](CCC(=O)O)NC(=O)[C@H](C(C)C)NC(=O)[C@H]([C@@H](C)CC)NC(=O)[C@H](CCC(=O)O)NC(=O)[C@H](CCCNC(=N)N)NC1=O
B4: i7-01s-70 (Ac-[Tat]-RLIQ(R8)KGDVEL(S5)RKR-NH2) (peptide)
peptide: Ac-YGRKKRRQRRRRLIQ[R8]KGDVEL[S5]RKR-NH2
modifications: staple 16-23
SMILES: CC[C@H](C)[C@H](NC(=O)[C@H](CC(C)C)NC(=O)[C@H](CCCNC(=N)N)NC(=O)[C@H](CCCNC(=N)N)NC(=O)[C@H](CCCNC(=N)N)NC(=O)[C@H](CCCNC(=N)N)NC(=O)[C@H](CCC(N)=O)NC(=O)[C@H](CCCNC(=N)N)NC(=O)[C@H](CCCNC(=N)N)NC(=O)[C@H](CCCCN)NC(=O)[C@H](CCCCN)NC(=O)[C@H](CCCNC(=N)N)NC(=O)CNC(=O)[C@H](Cc1ccc(O)cc1)NC(C)=O)C(=O)N[C@@H](CCC(N)=O)C(=O)N[C@]1(C)CCCCCCC=CCCC[C@@](C)(C(=O)N[C@@H](CCCNC(=N)N)C(=O)N[C@@H](CCCCN)C(=O)N[C@@H](CCCNC(=N)N)C(N)=O)NC(=O)[C@H](CC(C)C)NC(=O)[C@H](CCC(=O)O)NC(=O)[C@H](C(C)C)NC(=O)[C@H](CC(=O)O)NC(=O)CNC(=O)[C@H](CCCCN)NC1=O
B5: i7-01s-10 (Ac-[Tat]-RLIQ(R8)REDREK(S5)RAR-NH2) (peptide)
peptide: Ac-YGRKKRRQRRRRLIQ[R8]REDREK[S5]RAR-NH2
modifications: staple 16-23
SMILES: CC[C@H](C)[C@H](NC(=O)[C@H](CC(C)C)NC(=O)[C@H](CCCNC(=N)N)NC(=O)[C@H](CCCNC(=N)N)NC(=O)[C@H](CCCNC(=N)N)NC(=O)[C@H](CCCNC(=N)N)NC(=O)[C@H](CCC(N)=O)NC(=O)[C@H](CCCNC(=N)N)NC(=O)[C@H](CCCNC(=N)N)NC(=O)[C@H](CCCCN)NC(=O)[C@H](CCCCN)NC(=O)[C@H](CCCNC(=N)N)NC(=O)CNC(=O)[C@H](Cc1ccc(O)cc1)NC(C)=O)C(=O)N[C@@H](CCC(N)=O)C(=O)N[C@]1(C)CCCCCCC=CCCC[C@@](C)(C(=O)N[C@@H](CCCNC(=N)N)C(=O)N[C@@H](C)C(=O)N[C@@H](CCCNC(=N)N)C(N)=O)NC(=O)[C@H](CCCCN)NC(=O)[C@H](CCC(=O)O)NC(=O)[C@H](CCCNC(=N)N)NC(=O)[C@H](CC(=O)O)NC(=O)[C@H](CCC(=O)O)NC(=O)[C@H](CCCNC(=N)N)NC1=O
B6: i7-01s-75 (Ac-[Tat]-RLIY(R8)MEDVEK(S5)RKR-NH2) (peptide)
peptide: Ac-YGRKKRRQRRRRLIY[R8]MEDVEK[S5]RKR-NH2
modifications: staple 16-23
SMILES: CC[C@H](C)[C@H](NC(=O)[C@H](CC(C)C)NC(=O)[C@H](CCCNC(=N)N)NC(=O)[C@H](CCCNC(=N)N)NC(=O)[C@H](CCCNC(=N)N)NC(=O)[C@H](CCCNC(=N)N)NC(=O)[C@H](CCC(N)=O)NC(=O)[C@H](CCCNC(=N)N)NC(=O)[C@H](CCCNC(=N)N)NC(=O)[C@H](CCCCN)NC(=O)[C@H](CCCCN)NC(=O)[C@H](CCCNC(=N)N)NC(=O)CNC(=O)[C@H](Cc1ccc(O)cc1)NC(C)=O)C(=O)N[C@@H](Cc1ccc(O)cc1)C(=O)N[C@]1(C)CCCCCCC=CCCC[C@@](C)(C(=O)N[C@@H](CCCNC(=N)N)C(=O)N[C@@H](CCCCN)C(=O)N[C@@H](CCCNC(=N)N)C(N)=O)NC(=O)[C@H](CCCCN)NC(=O)[C@H](CCC(=O)O)NC(=O)[C@H](C(C)C)NC(=O)[C@H](CC(=O)O)NC(=O)[C@H](CCC(=O)O)NC(=O)[C@H](CCSC)NC1=O
B7: i7-01s-45 (Ac-[Tat]-RLKQ(R8)LEDVEK(S5)RKR-NH2) (peptide)
peptide: Ac-YGRKKRRQRRRRLKQ[R8]LEDVEK[S5]RKR-NH2
modifications: staple 16-23
SMILES: CC(=O)N[C@@H](Cc1ccc(O)cc1)C(=O)NCC(=O)N[C@@H](CCCNC(=N)N)C(=O)N[C@@H](CCCCN)C(=O)N[C@@H](CCCCN)C(=O)N[C@@H](CCCNC(=N)N)C(=O)N[C@@H](CCCNC(=N)N)C(=O)N[C@@H](CCC(N)=O)C(=O)N[C@@H](CCCNC(=N)N)C(=O)N[C@@H](CCCNC(=N)N)C(=O)N[C@@H](CCCNC(=N)N)C(=O)N[C@@H](CCCNC(=N)N)C(=O)N[C@@H](CC(C)C)C(=O)N[C@@H](CCCCN)C(=O)N[C@@H](CCC(N)=O)C(=O)N[C@]1(C)CCCCCCC=CCCC[C@@](C)(C(=O)N[C@@H](CCCNC(=N)N)C(=O)N[C@@H](CCCCN)C(=O)N[C@@H](CCCNC(=N)N)C(N)=O)NC(=O)[C@H](CCCCN)NC(=O)[C@H](CCC(=O)O)NC(=O)[C@H](C(C)C)NC(=O)[C@H](CC(=O)O)NC(=O)[C@H](CCC(=O)O)NC(=O)[C@H](CC(C)C)NC1=O
B8: i7-01s-37 (Ac-[Tat]-RLIQ(R8)KEDVEK(S5)RKR-NH2) (peptide)
peptide: Ac-YGRKKRRQRRRRLIQ[R8]KEDVEK[S5]RKR-NH2
modifications: staple 16-23
SMILES: CC[C@H](C)[C@H](NC(=O)[C@H](CC(C)C)NC(=O)[C@H](CCCNC(=N)N)NC(=O)[C@H](CCCNC(=N)N)NC(=O)[C@H](CCCNC(=N)N)NC(=O)[C@H](CCCNC(=N)N)NC(=O)[C@H](CCC(N)=O)NC(=O)[C@H](CCCNC(=N)N)NC(=O)[C@H](CCCNC(=N)N)NC(=O)[C@H](CCCCN)NC(=O)[C@H](CCCCN)NC(=O)[C@H](CCCNC(=N)N)NC(=O)CNC(=O)[C@H](Cc1ccc(O)cc1)NC(C)=O)C(=O)N[C@@H](CCC(N)=O)C(=O)N[C@]1(C)CCCCCCC=CCCC[C@@](C)(C(=O)N[C@@H](CCCNC(=N)N)C(=O)N[C@@H](CCCCN)C(=O)N[C@@H](CCCNC(=N)N)C(N)=O)NC(=O)[C@H](CCCCN)NC(=O)[C@H](CCC(=O)O)NC(=O)[C@H](C(C)C)NC(=O)[C@H](CC(=O)O)NC(=O)[C@H](CCC(=O)O)NC(=O)[C@H](CCCCN)NC1=O
B9: i7-01s-64 (Ac-[Tat]-RLII(R8)QEDVEK(S5)RKR-NH2) (peptide)
peptide: Ac-YGRKKRRQRRRRLII[R8]QEDVEK[S5]RKR-NH2
modifications: staple 16-23
SMILES: CC[C@H](C)[C@H](NC(=O)[C@H](CC(C)C)NC(=O)[C@H](CCCNC(=N)N)NC(=O)[C@H](CCCNC(=N)N)NC(=O)[C@H](CCCNC(=N)N)NC(=O)[C@H](CCCNC(=N)N)NC(=O)[C@H](CCC(N)=O)NC(=O)[C@H](CCCNC(=N)N)NC(=O)[C@H](CCCNC(=N)N)NC(=O)[C@H](CCCCN)NC(=O)[C@H](CCCCN)NC(=O)[C@H](CCCNC(=N)N)NC(=O)CNC(=O)[C@H](Cc1ccc(O)cc1)NC(C)=O)C(=O)N[C@H](C(=O)N[C@]1(C)CCCCCCC=CCCC[C@@](C)(C(=O)N[C@@H](CCCNC(=N)N)C(=O)N[C@@H](CCCCN)C(=O)N[C@@H](CCCNC(=N)N)C(N)=O)NC(=O)[C@H](CCCCN)NC(=O)[C@H](CCC(=O)O)NC(=O)[C@H](C(C)C)NC(=O)[C@H](CC(=O)O)NC(=O)[C@H](CCC(=O)O)NC(=O)[C@H](CCC(N)=O)NC1=O)[C@@H](C)CC
B10: Tat-SP4 (Ac-[Tat]-RLISEL(R8)DREKQR(S5)A-NH2) (peptide)
peptide: Ac-YGRKKRRQRRRRLISEL[R8]DREKQR[S5]A-NH2
modifications: staple 18-25

What follows are binders tested against T1, Beclin 1 coiled coil domain (human Beclin 1, residues 176-268) (human, UniProt Q14457 176-268) (assay: ITC, peptide titrated into Beclin 1 coiled coil domain, 25 C, one-site model).
T1 construct: range 176-268; also called Beclin 1 coiled coil domain protein
T1 sequence (Q14457 176-268 limits assumed): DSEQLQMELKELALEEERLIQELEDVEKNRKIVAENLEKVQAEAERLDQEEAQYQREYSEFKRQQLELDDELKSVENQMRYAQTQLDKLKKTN
For B1, the Kd was 2200 nM.
B2 gave a Kd of 860 nM.
In the case of B3, the Kd is reported as 610 nM.
B4 showed a Kd of 2140 nM.
With B5 the Kd was 2030 nM.
Binder B6 has a Kd of 1290 nM.
B7 showed a Kd of 1410 nM.
In the case of B8, the Kd is reported as 2410 nM.
In the case of B9, the Kd is reported as 356000 nM.
Binder B10 has a Kd of 3210 nM.
